Experimental findings from patent publication US8889419 (INDIANA UNIVERSITY RESEARCH AND TECHNOLOGY, dated 2014) are described below.

The target in assay [1] is T1, integrin VLA-4 on HL60 cells (UniProt P13612 34-1032; P05556 21-798).
T1 construct: whole, on cells; HL60 cells express VLA-4 but not VLA-5 by flow cytometry; also called CD49d
Put plainly: adhesion of HL60 cells to fragment-coated plates.

For assay [2], the target named is T1, integrin VLA-4 on HL60 cells. In words: adhesion of HL60 cells (VLA-4 positive) to fragment-coated plates.

T1 sequence (P13612 34-1032, chain 1 of 2): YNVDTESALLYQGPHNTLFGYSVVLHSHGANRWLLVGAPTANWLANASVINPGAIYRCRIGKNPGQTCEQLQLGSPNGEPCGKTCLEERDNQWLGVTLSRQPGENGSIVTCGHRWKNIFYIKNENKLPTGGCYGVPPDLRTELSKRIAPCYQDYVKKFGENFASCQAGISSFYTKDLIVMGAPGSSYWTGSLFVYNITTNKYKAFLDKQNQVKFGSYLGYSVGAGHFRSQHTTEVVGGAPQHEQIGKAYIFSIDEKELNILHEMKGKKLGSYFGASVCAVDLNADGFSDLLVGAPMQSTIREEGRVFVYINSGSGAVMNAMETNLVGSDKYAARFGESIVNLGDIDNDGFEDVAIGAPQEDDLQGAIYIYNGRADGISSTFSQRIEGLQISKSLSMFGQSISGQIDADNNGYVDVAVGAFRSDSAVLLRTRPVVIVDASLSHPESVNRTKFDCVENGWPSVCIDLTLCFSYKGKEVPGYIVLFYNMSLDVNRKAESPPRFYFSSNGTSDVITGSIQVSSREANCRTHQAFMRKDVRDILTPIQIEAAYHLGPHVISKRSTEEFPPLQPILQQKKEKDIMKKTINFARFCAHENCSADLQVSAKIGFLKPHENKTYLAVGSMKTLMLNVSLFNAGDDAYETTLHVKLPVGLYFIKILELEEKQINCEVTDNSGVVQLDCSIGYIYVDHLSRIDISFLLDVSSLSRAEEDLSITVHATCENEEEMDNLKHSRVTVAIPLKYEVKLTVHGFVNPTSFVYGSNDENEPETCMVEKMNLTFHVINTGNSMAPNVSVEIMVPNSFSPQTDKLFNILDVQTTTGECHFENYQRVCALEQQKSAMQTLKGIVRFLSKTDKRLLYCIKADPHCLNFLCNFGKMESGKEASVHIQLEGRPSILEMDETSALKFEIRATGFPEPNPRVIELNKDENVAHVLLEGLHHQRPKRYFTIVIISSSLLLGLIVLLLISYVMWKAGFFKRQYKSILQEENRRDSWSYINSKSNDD
T1 sequence (P05556 21-798, chain 2 of 2): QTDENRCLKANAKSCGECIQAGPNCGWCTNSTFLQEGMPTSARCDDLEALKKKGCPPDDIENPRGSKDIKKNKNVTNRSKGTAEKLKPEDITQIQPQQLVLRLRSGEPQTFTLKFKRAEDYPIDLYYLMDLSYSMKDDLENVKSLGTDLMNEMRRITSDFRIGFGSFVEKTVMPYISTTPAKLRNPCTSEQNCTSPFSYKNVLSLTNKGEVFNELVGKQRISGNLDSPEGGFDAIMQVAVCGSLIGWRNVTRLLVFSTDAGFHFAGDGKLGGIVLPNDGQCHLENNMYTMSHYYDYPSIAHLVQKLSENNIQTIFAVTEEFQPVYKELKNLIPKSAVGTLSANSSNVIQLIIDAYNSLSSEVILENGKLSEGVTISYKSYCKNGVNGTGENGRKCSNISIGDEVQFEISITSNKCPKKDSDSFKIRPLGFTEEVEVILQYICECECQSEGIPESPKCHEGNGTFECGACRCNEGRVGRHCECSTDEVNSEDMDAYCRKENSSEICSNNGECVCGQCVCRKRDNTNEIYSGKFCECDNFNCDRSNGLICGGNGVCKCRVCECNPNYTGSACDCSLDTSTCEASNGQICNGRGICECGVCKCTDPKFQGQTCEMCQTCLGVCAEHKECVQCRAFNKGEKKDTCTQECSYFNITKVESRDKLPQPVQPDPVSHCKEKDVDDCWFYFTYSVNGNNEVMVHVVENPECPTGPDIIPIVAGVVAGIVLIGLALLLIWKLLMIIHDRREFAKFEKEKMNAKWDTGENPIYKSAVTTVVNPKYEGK

B1: recombinant fibronectin fragment H-271 (other, human, UniProt P02751 1812-2082, looked up)
chain: AIPAPTDLKFTQVTPTSLSAQWTPPNVQLTGYRVRVTPKEKTGPMKEINLAPDSSSVVVSGLMVATKYEVSVYALKDTLTSRPAQGVVTTLENVSPPRRARVTDATETTITISWRTKTETITGFQVDAVPANGQTPIQRTIKPDVRSYTITGLQPGTDYKIYLYTLNDNARSSPVVIDASTAIDAPSNLRFLATTPNSLLVSWQPPRARITGYIIKYEKPGSPPREVVPRPRPGVTEATITGLEPGTEYTIYVIALKNNQKSEPLIGRKKT
On to B1, for which the binding result in assay [1] is on record as “no binding (tested: 2 µg/cm^2 coating)”.

B2: recombinant fibronectin fragment H-296 (other, human, UniProt P02751 1812-2082, looked up)
chain: AIPAPTDLKFTQVTPTSLSAQWTPPNVQLTGYRVRVTPKEKTGPMKEINLAPDSSSVVVSGLMVATKYEVSVYALKDTLTSRPAQGVVTTLENVSPPRRARVTDATETTITISWRTKTETITGFQVDAVPANGQTPIQRTIKPDVRSYTITGLQPGTDYKIYLYTLNDNARSSPVVIDASTAIDAPSNLRFLATTPNSLLVSWQPPRARITGYIIKYEKPGSPPREVVPRPRPGVTEATITGLEPGTEYTIYVIALKNNQKSEPLIGRKKTDELPQLVTLPHPNLHGPEILDVPST
notes: Expressed in E. coli
For the molecule B2, the binding result in assay [2] is “binds”.
